Laboratory results: US20140219913A1 (AbbVie / Abbott, published 2014)

T1: Recombinant human B7-1/CD80 Fc chimera (Cat. 140-B1-100, R&D Systems) (human, UniProt P33681 35-242)
T1 construct: extracellular domain; also called B7-1 antigen; Fc part of the bought chimera not given; not described
T1 sequence (looked up): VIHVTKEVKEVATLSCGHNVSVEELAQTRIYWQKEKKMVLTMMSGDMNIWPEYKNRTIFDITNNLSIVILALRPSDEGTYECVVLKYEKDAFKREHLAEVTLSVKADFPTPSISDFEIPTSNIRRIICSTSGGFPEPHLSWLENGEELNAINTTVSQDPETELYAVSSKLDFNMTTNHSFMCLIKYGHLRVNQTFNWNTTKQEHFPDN

T2: Recombinant human B7-2/CD86 Fc chimera (Cat. 141-B2-100, R&D Systems) (human, UniProt P42081 26-245)
T2 construct: Fc part of the bought chimera not given; not described
T2 sequence (looked up): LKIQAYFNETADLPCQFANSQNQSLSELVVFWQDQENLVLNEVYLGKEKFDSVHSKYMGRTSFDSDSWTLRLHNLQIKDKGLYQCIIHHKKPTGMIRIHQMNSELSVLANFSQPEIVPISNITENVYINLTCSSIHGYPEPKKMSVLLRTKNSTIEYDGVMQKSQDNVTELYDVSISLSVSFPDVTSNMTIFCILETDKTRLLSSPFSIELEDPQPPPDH

B1: RAB031 (other)
VH: QVQLQESGPGLVKPSETLSLTCTVSGFSLIGYDLNWIRQPPGKGLEWIGIIWGDGTTDYNSAVKSRVTISKDTSKNQFSLKLSSVTAADTAVYYCARGGYWYATSYYFDYWGQGTLVTVSS
VL: LPAQVAFTPYAPEPGSTCRLREYYDQTAQMCCSKCSPGQHAKVFCTKTSDTVCDSCEDSTYTQLWNWVPECLSCGSRCSSDQVETQACTREQNRICTCRPGWYCALSKQEGCRLCAPLRKCRPGFGVARPGTETSDVVCKPCAPGTFSNTTSSTDICRPHQICNVVAIPGNASMDAVCTSTSPTRSMAPGAVHLPQPVSTRSQHTQPTPEPSTAPSTSFLLPMGPSPPAEGSTGDTVAAPDIQMTQSPSSLSASVGDRVTITCRASQSISNNLNWYQQKPGKAPKLLIYYTSRFHSGVPSRFSGSGSGTDFTFTISSLQPEDIATYYCQQEHTLPYTFGQGTKLEIKR
B2: RAB028 (other)
VH: EVQLVQSGAEVKKPGASVKVSCKASGYTFTKYWLGWVRQAPGQGLEWMGDIYPGYDYTHYNEKFKDRVTLTTDTSTSTAYMELRSLRSDDTAVYYCARSDGSSTYWGQGTLVTVSS
VL: LPAQVAFTPYAPEPGSTCRLREYYDQTAQMCCSKCSPGQHAKVFCTKTSDTVCDSCEDSTYTQLWNWVPECLSCGSRCSSDQVETQACTREQNRICTCRPGWYCALSKQEGCRLCAPLRKCRPGFGVARPGTETSDVVCKPCAPGTFSNTTSSTDICRPHQICNVVAIPGNASMDAVCTSTSPTRSMAPGAVHLPQPVSTRSQHTQPTPEPSTAPSTSFLLPMGPSPPAEGSTGDTVAAPDVLMTQTPLSLPVTPGEPASISCTSSQNIVHSNGNTYLEWYLQKPGQSPQLLIYKVSNRFSGVPDRFSGSGSGTDFTLKISRVEAEDVGVYYCFQVSHVPYTFGGGTKVEIKR
B3: RAB030 (other)
VH: LPAQVAFTPYAPEPGSTCRLREYYDQTAQMCCSKCSPGQHAKVFCTKTSDTVCDSCEDSTYTQLWNWVPECLSCGSRCSSDQVETQACTREQNRICTCRPGWYCALSKQEGCRLCAPLRKCRPGFGVARPGTETSDVVCKPCAPGTFSNTTSSTDICRPHQICNVVAIPGNASMDAVCTSTSPTRSMAPGAVHLPQPVSTRSQHTQPTPEPSTAPSTSFLLPMGPSPPAEGSTGDASTKGPQVQLQESGPGLVKPSETLSLTCTVSGFSLIGYDLNWIRQPPGKGLEWIGIIWGDGTTDYNSAVKSRVTISKDTSKNQFSLKLSSVTAADTAVYYCARGGYWYATSYYFDYWGQGTLVTVSS
VL: DIQMTQSPSSLSASVGDRVTITCRASQSISNNLNWYQQKPGKAPKLLIYYTSRFHSGVPSRFSGSGSGTDFTFTISSLQPEDIATYYCQQEHTLPYTFGQGTKLEIKR
B4: RAB027 (other)
VH: LPAQVAFTPYAPEPGSTCRLREYYDQTAQMCCSKCSPGQHAKVFCTKTSDTVCDSCEDSTYTQLWNWVPECLSCGSRCSSDQVETQACTREQNRICTCRPGWYCALSKQEGCRLCAPLRKCRPGFGVARPGTETSDVVCKPCAPGTFSNTTSSTDICRPHQICNVVAIPGNASMDAVCTSTSPTRSMAPGAVHLPQPVSTRSQHTQPTPEPSTAPSTSFLLPMGPSPPAEGSTGDASTKGPEVQLVQSGAEVKKPGASVKVSCKASGYTFTKYWLGWVRQAPGQGLEWMGDIYPGYDYTHYNEKFKDRVTLTTDTSTSTAYMELRSLRSDDTAVYYCARSDGSSTYWGQGTLVTVSS
VL: DVLMTQTPLSLPVTPGEPASISCTSSQNIVHSNGNTYLEWYLQKPGQSPQLLIYKVSNRFSGVPDRFSGSGSGTDFTLKISRVEAEDVGVYYCFQVSHVPYTFGGGTKVEIKR
B5: RAB014 (other)
VH: AMHVAQPAVVLASSRGIASFVCEYASPGKYTEVRVTVLRQADSQVTEVCAATYMMGNELTFLDDSICTGTSSGNQVNLTIQGLRAMDTGLYICKVELMYPPPYYEGIGNGTQIYVIDPEPCPDSDASTKGPSVFPLAPEVQLVQSGAEVKKPGASVKVSCKASGYTFTKYWLGWVRQAPGQGLEWMGDIYPGYDYTHYNEKFKDRVTLTTDTSTSTAYMELRSLRSDDTAVYYCARSDGSSTYWGQGTLVTVSS
VL: B4 VL
notes: rDVD-Ig with LEA29Y on the heavy chain only and a long linker; also called RAB014H; RAB014L
B6: RAB020 (other)
VH: AMHVAQPAVVLASSRGIASFVCEYASPGKYTEVRVTVLRQADSQVTEVCAATYMMGNELTFLDDSICTGTSSGNQVNLTIQGLRAMDTGLYICKVELMYPPPYYEGIGNGTQIYVIDPEPCPDSDQEPKSSDKTHTSPEVQLVQSGAEVKKPGASVKVSCKASGYTFTKYWLGWVRQAPGQGLEWMGDIYPGYDYTHYNEKFKDRVTLTTDTSTSTAYMELRSLRSDDTAVYYCARSDGSSTYWGQGTLVTVSS
VL: B4 VL
notes: rDVD-Ig with LEA29Y on the heavy chain only and a QH linker; also called RAB020H; RAB020L

Key:
NGF = experiment: cell-based or functional assay
TNF-alpha = experiment: cell-based or functional assay
[1] = molecular target: T1, Recombinant human B7-1/CD80 Fc chimera …; experiment: direct bind ELISA, coated recombinant human B7-1/CD80 Fc chimera
Description: Enzyme Linked Immunosorbent Assays (ELISA) to screen for antibodies that bind a desired target antigen were performed as follows. High bind ELISA plates (Corning Costar #3369, Acton, Mass.) were coated with 100 μL/well of 10 μg/ml of desired target antigen (R&D Systems, Minneapolis, Minn.) or desired target antigen extra-cellular domain/FC fusion protein (R&D Systems, Minneapolis, Minn.) or monoclonal mouse anti-polyHistidine antibody (R&D Systems #MAB050, Minneapolis, Minn.) in phosphate buffered saline (10×PBS, Abbott Bioresearch Center, Media Prep#MPS-073, Worcester, Mass.) overnight at 4° C. Plates were washed four times with PBS containing 0.02% Tween 20. Plates were blocked by the addition of 300 μL/well blocking solution (non-fat dry milk powder, various retail suppliers, diluted to 2% in PBS) for ½ hour at room temperature. Plates were washed four times after blocking with PBS containing 0.02% Tween 20.
One hundred microliters of 10 ng/mL goat anti-human IgG-FC specific HRP conjugated antibody (Southern Biotech #2040-05, Birmingham, Ala.) was added to each well of the desired target antigen plate or anti-polyHistidine antibody/Histidine tagged desired target antigen plate. Alternatively, one hundred microliters of 10 ng/mL goat anti-human IgG-kappa light chain specific HRP conjugated antibody (Southern Biotech #2060-05 Birmingham, Ala.) was added to each well of the desired target antigen/FC fusion plate and incubated for 1 hour at room temperature. Plates were washed 4 times with PBS containing 0.02% Tween 20.
One hundred microliters of enhanced TMB solution (Neogen Corp. #308177, K Blue, Lexington, Ky.) was added to each well and incubated for 10 minutes at room temperature. The reaction was stopped by the addition of 50 μL 1N sulphuric acid. Plates were read spectrophotometrically at a wavelength of 450 nm

[2] = molecular target: T1, Recombinant human B7-1/CD80 Fc chimera …; experiment: competitive ELISA; coated CD28 Fc, biotinylated B7-1/CD80 Fc (2 nM), construct titrated
Description: (§1) ELISA plates (Nunc, MaxiSorp, Rochester, N.Y.) were incubated overnight at 4° C. with Recombinant Human CD28 Fc Chimera (Cat. #342-CD-200). Plates were washed three times in washing buffer (PBS containing 0.05% Tween 20), and blocked for 1 hour at 25° C. in blocking buffer (PBS containing 1% BSA). Wells were washed three times, and serial dilutions of each antibody or DVD-Ig in PBS containing 0.1% BSA were added to the wells and incubated at 25° C. for 1 hour. The wells were washed three times, and biotinylated antigen (2 nM) was added to the plates and incubated for 1 hour at 25° C. The wells were washed three times and incubated for 1 hour at 25° C. with streptavidin-HRP (KPL #474-3000, Gaithersburg, Md.). The wells were washed three times, and 100 μl of ULTRA-TMB ELISA (Pierce, Rockford, Ill.) was added per well. Following color development the reaction was stopped with 1N HCL and absorbance at 450 nm was measured. Recombinant human B7-1/CD80 Fc chimera (Cat. 140-B1-100, R&D Systems, Minneapolis, Minn.) was used.

[3] = molecular target: T2, Recombinant human B7-2/CD86 Fc chimera …; experiment: competitive ELISA; coated CD28 Fc, biotinylated B7-2/CD86 Fc, construct titrated
Description: as §1
Recombinant human B7-2/CD86 Fc chimera (Cat. 141-B2-100, R&D Systems, Minneapolis, Minn.) was used.

Binder | C-terminal Bioassay Mean (IC50, nM): Cell Impedance assay (NGF) [nM] | C-terminal Bioassay Mean (IC50, nM): pERK assay (NGF) [nM] | N-terminal L929 Assay (EC50, pM) (TNF-alpha) [pM] | EC50 [1] [nM] | EC50 [2] [nM] | EC50 [3] [nM]
B1 | 1.1 | 0.5 | 120 | – | – | –
B2 | – | – | 90 | – | – | –
B3 | 1.6 | 0.6 | 50 | – | – | –
B4 | – | – | 30 | – | – | –
B5 | – | – | – | 1.5 | 1.7 | 1.1
B6 | – | – | – | 1.2 | 1.7 | 1
